Where a chain is given by its changes, count along the chain named. In names and notes the source's numbering stands.
B1: FUT8Δstem-GSx22 (enzyme, human)
chain: MRPWTGSWRWIMLILFAWGTLLFYIGGHLGSGSGSGSGSGSGSGSGSGSGSGSGSGSGSGSGSGSGSGSGSGSGKDHEILRRRIENGAKELWFFLQSELKKLKNLEGNELQRHADEFLLDLGHHERSIMTDLYYLSQTDGAGDWREKEAKDLTELVQRRITYLQNPKDCSKAKKLVCNINKGCGYGCQLHHVVYCFMIAYGTQRTLILESQNWRYATGGWETVFRPVSETCTDRSGISTGHWSGEVKDKNVQVVELPIVDSLHPRPPYLPLAVPEDLADRLVRVHGDPAVWWVSQFVKYLIRPQPWLEKEIEEATKKLGFKHPVIGVHVRRTDKVGTEAAFHPIEEYMVHVEEHFQLLARRMQVDKKRVYLATDDPSLLKEAKTKYPNYEFISDNSISWSAGLHNRYTENSLRGVILDIHFLSQADFLVCTFSSQVCRVAYEIMQTLHPDASANFHSLDDIYYFGGQNAHNQIAIYAHQPRTADEIPMEPGDIIGVAGNHWDGYSKGVNRKLGRTGLYPSYKVREKIETVKYPTYPEAEK
notes: human FUT8, start codon to the 87th base of the cDNA; the stem region Val30-Leu108 is replaced; glycine-serine repeat of 44 amino acids; human FUT8, 325th to 1725th base of the cDNA (coiled-coil domain to the C terminus); Anti-Myc blots show two bands (full size and about 50 kDa); also called Myc-tagged FUT8Δstem-GSx22; source: HEK293 FUT8KO, transfected, in lysate; not shown: Myc, C-terminal, …
B2: FUT8Δhelix 1 (enzyme, human, UniProt Q9BYC5 1-575, looked up)
chain: MRPWTGSWRWIMLILFAWGTLLFYIGGHLVRDNDHRIPEGPIDQGPAIGRVRVLEEQLVKAKEQIENYKKQTRNGLGKDHEILRRRIENGAKELWFFLQSELKKLKNLEGNELQRHADEFLLDLGHHERSIMTDLYYLSQTDGAGDWREKEAKDLTELVQRRITYLQNPKDCSKAKKLVCNINKGCGYGCQLHHVVYCFMIAYGTQRTLILESQNWRYATGGWETVFRPVSETCTDRSGISTGHWSGEVKDKNVQVVELPIVDSLHPRPPYLPLAVPEDLADRLVRVHGDPAVWWVSQFVKYLIRPQPWLEKEIEEATKKLGFKHPVIGVHVRRTDKVGTEAAFHPIEEYMVHVEEHFQLLARRMQVDKKRVYLATDDPSLLKEAKTKYPNYEFISDNSISWSAGLHNRYTENSLRGVILDIHFLSQADFLVCTFSSQVCRVAYEIMQTLHPDASANFHSLDDIYYFGGQNAHNQIAIYAHQPRTADEIPMEPGDIIGVAGNHWDGYSKGVNRKLGRTGLYPSYKVREKIETVKYPTYPEAEK
notes: human FUT8; start codon to the 105th base joined to the 202nd to 1725th base of the cDNA, so that Helix 1 (Pro36-Leu67) is missing; also called Myc-tagged FUT8 Δhelix 1; source: HEK293 FUT8KO, transfected, in lysate; not shown: Myc, C-terminal, kept
B3: FUT8 stem (N-terminal part of FUT8, cytosolic region to stem region) fused with LgBiT or SmBiT (domain or fragment, human, UniProt Q9BYC5 1-108, looked up)
chain: MRPWTGSWRWIMLILFAWGTLLFYIGGHLVRDNDHPDHSSRELSKILAKLERLKQQNEDLRRMAESLRIPEGPIDQGPAIGRVRVLEEQLVKAKEQIENYKKQTRNGL
notes: human FUT8, 1st to 326th base of the cDNA: cytosolic region, transmembrane region and stem region (stem ends at Leu108); Two differently tagged copies of the same fragment; no chain bears both LgBiT and SmBiT; The 326th base is two bases past codon 108; also called FUT8 stem-LgBiT; FUT8 stem-SmBiT; source: HEK293 FUT8KO, transfected, in lysate; not shown: LgBiT (one copy; vector pBiT1.1-C …)
B4: FUT8 Y100A/R105A (enzyme, human, UniProt Q9BYC5 1-575, looked up)
chain: MRPWTGSWRWIMLILFAWGTLLFYIGGHLVRDNDHPDHSSRELSKILAKLERLKQQNEDLRRMAESLRIPEGPIDQGPAIGRVRVLEEQLVKAKEQIENAKKQTANGLGKDHEILRRRIENGAKELWFFLQSELKKLKNLEGNELQRHADEFLLDLGHHERSIMTDLYYLSQTDGAGDWREKEAKDLTELVQRRITYLQNPKDCSKAKKLVCNINKGCGYGCQLHHVVYCFMIAYGTQRTLILESQNWRYATGGWETVFRPVSETCTDRSGISTGHWSGEVKDKNVQVVELPIVDSLHPRPPYLPLAVPEDLADRLVRVHGDPAVWWVSQFVKYLIRPQPWLEKEIEEATKKLGFKHPVIGVHVRRTDKVGTEAAFHPIEEYMVHVEEHFQLLARRMQVDKKRVYLATDDPSLLKEAKTKYPNYEFISDNSISWSAGLHNRYTENSLRGVILDIHFLSQADFLVCTFSSQVCRVAYEIMQTLHPDASANFHSLDDIYYFGGQNAHNQIAIYAHQPRTADEIPMEPGDIIGVAGNHWDGYSKGVNRKLGRTGLYPSYKVREKIETVKYPTYPEAEK
notes: human FUT8 with two point mutations in Helix 2 of the stem region; also called Myc-tagged FUT8 Y100A/R105A; source: HEK293 FUT8KO, transfected, in lysate; not shown: Myc, C-terminal, kept
B5: soluble His-FUT8 (Arg68-Lys575) (domain or fragment, human, UniProt Q9BYC5 68-575, looked up)
chain: RIPEGPIDQGPAIGRVRVLEEQLVKAKEQIENYKKQTRNGLGKDHEILRRRIENGAKELWFFLQSELKKLKNLEGNELQRHADEFLLDLGHHERSIMTDLYYLSQTDGAGDWREKEAKDLTELVQRRITYLQNPKDCSKAKKLVCNINKGCGYGCQLHHVVYCFMIAYGTQRTLILESQNWRYATGGWETVFRPVSETCTDRSGISTGHWSGEVKDKNVQVVELPIVDSLHPRPPYLPLAVPEDLADRLVRVHGDPAVWWVSQFVKYLIRPQPWLEKEIEEATKKLGFKHPVIGVHVRRTDKVGTEAAFHPIEEYMVHVEEHFQLLARRMQVDKKRVYLATDDPSLLKEAKTKYPNYEFISDNSISWSAGLHNRYTENSLRGVILDIHFLSQADFLVCTFSSQVCRVAYEIMQTLHPDASANFHSLDDIYYFGGQNAHNQIAIYAHQPRTADEIPMEPGDIIGVAGNHWDGYSKGVNRKLGRTGLYPSYKVREKIETVKYPTYPEAEK
notes: human FUT8, soluble form from Arg68 to the C terminus (Lys575); Plasmid pcDNA-IH/FUT8; also called purified soluble FUT8; recombinant soluble FUT8; source: COS7, transfected, purified from the culture medium (Ni2+ column, NAP-5 desalting)
B6: FUT8Δstem-GSx40 (enzyme, human)
chain: MRPWTGSWRWIMLILFAWGTLLFYIGGHLGSGSGSGSGSGSGSGSGSGSGSGSGSGSGSGSGSGSGSGSGSGSGSGSGSGSGSGSGSGSGSGSGSGSGSGSGSGSGSGSGKDHEILRRRIENGAKELWFFLQSELKKLKNLEGNELQRHADEFLLDLGHHERSIMTDLYYLSQTDGAGDWREKEAKDLTELVQRRITYLQNPKDCSKAKKLVCNINKGCGYGCQLHHVVYCFMIAYGTQRTLILESQNWRYATGGWETVFRPVSETCTDRSGISTGHWSGEVKDKNVQVVELPIVDSLHPRPPYLPLAVPEDLADRLVRVHGDPAVWWVSQFVKYLIRPQPWLEKEIEEATKKLGFKHPVIGVHVRRTDKVGTEAAFHPIEEYMVHVEEHFQLLARRMQVDKKRVYLATDDPSLLKEAKTKYPNYEFISDNSISWSAGLHNRYTENSLRGVILDIHFLSQADFLVCTFSSQVCRVAYEIMQTLHPDASANFHSLDDIYYFGGQNAHNQIAIYAHQPRTADEIPMEPGDIIGVAGNHWDGYSKGVNRKLGRTGLYPSYKVREKIETVKYPTYPEAEK
notes: human FUT8, start codon to the 87th base of the cDNA; the stem region Val30-Leu108 is replaced; glycine-serine repeat of 80 amino acids; human FUT8, 325th to 1725th base of the cDNA (coiled-coil domain to the C terminus); Anti-Myc blots show two bands (full size and about 50 kDa); also called Myc-tagged FUT8Δstem-GSx40; source: HEK293 FUT8KO, transfected, in lysate; not shown: Myc, C-terminal, …
B7: FUT8Δhelix 2 (enzyme, human, UniProt Q9BYC5 1-575, looked up)
chain: MRPWTGSWRWIMLILFAWGTLLFYIGGHLVRDNDHPDHSSRELSKILAKLERLKQQNEDLRRMAESLRIPEGPIDQGPNGLGKDHEILRRRIENGAKELWFFLQSELKKLKNLEGNELQRHADEFLLDLGHHERSIMTDLYYLSQTDGAGDWREKEAKDLTELVQRRITYLQNPKDCSKAKKLVCNINKGCGYGCQLHHVVYCFMIAYGTQRTLILESQNWRYATGGWETVFRPVSETCTDRSGISTGHWSGEVKDKNVQVVELPIVDSLHPRPPYLPLAVPEDLADRLVRVHGDPAVWWVSQFVKYLIRPQPWLEKEIEEATKKLGFKHPVIGVHVRRTDKVGTEAAFHPIEEYMVHVEEHFQLLARRMQVDKKRVYLATDDPSLLKEAKTKYPNYEFISDNSISWSAGLHNRYTENSLRGVILDIHFLSQADFLVCTFSSQVCRVAYEIMQTLHPDASANFHSLDDIYYFGGQNAHNQIAIYAHQPRTADEIPMEPGDIIGVAGNHWDGYSKGVNRKLGRTGLYPSYKVREKIETVKYPTYPEAEK
notes: human FUT8; start codon to the 234th base joined to the 316th to 1725th base of the cDNA, so that Helix 2 (Ala79-Arg105) is missing; also called Myc-tagged FUT8 Δhelix 2; source: HEK293 FUT8KO, transfected, in lysate; not shown: Myc, C-terminal, kept

How the values were obtained:
[1] = molecular target: T1, alpha-1,6-fucosyltransferase FUT8 WT (human, UniProt Q9BYC5 1-575); test: co-IP; lysates (TBS, 1% Triton X-100) of HEK293 FUT8KO cells coexpressing Myc-tagged FUT8 WT or mutant with 3xFLAG-FUT8 WT; anti-DYKDDDDK antibody magnetic beads, 4 °C overnight; anti-Myc blot; IP signal divided by input, relative to FUT8 WT; settings: partners not purified
T1 construct: No chain bears both Myc and 3xFLAG; also called Myc-FUT8; Myc-tagged FUT8; source: HEK293 FUT8KO, transfected, in lysate; not shown: Myc (copy from pcDNA6-mycHisA), C-terminal, kept; His tag (from the vector pcDNA6-mycHisA); 3xFLAG (other copy; from pME-3xFLAG), C-terminal, kept
T1 sequence (looked up): B4 chain with A100Y, A105R

[2] = molecular target: the molecule itself; test: split reporter (BiFC, NanoBiT); NanoBiT; LgBiT and SmBiT fusions coexpressed in HEK293 FUT8KO cells; 0.6 μg of lysate protein (TBS, 1% Triton X-100) with Nano-Glo Live Cell Substrate at RT; luminescence relative to empty-vector (Mock) sample
[3] = molecular target: the molecule itself; test: native gel or EMSA; Blue Native PAGE (4% to 16%) of purified soluble His-FUT8, Western blot with anti-FUT8

Binder | coprecipitated anti-Myc signal (IP/input) relative to FUT8 WT [1] | other results
B1 | 0.127 relative to FUT8 WT | 
B2 | 0.0934 relative to FUT8 WT | 
B3 |  | relative luminescence (NanoBiT, relative to Mock) [2]: 165 relative to Mock
B4 | 1.56 relative to FUT8 WT | 
B5 |  | binding result [3]: binds
B6 | 0.122 relative to FUT8 WT | 
B7 | 0.5 relative to FUT8 WT | 

— paper PMC9709245, “The stem region of α1,6-fucosyltransferase FUT8 is required for multimer formation but not catalytic activity” (The Journal of Biological Chemistry, 2022)
